The substances below were run against microtubules (assay: co-sedimentation).
Chain of microtubules (P68363 whole entry, chain 1 of 2): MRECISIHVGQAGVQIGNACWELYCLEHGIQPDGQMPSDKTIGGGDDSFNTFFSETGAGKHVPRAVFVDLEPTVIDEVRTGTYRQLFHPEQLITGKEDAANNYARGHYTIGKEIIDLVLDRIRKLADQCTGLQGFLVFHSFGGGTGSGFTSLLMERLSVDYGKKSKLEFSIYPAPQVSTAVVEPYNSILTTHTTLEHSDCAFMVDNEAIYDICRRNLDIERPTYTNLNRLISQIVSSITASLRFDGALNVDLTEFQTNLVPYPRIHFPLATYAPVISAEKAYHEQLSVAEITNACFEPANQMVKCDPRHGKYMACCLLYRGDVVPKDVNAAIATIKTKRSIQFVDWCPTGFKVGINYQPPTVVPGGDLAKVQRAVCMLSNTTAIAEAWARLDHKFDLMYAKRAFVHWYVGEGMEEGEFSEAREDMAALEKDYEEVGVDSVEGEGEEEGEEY
Chain of microtubules (A8K068 whole entry, chain 2 of 2, further chain): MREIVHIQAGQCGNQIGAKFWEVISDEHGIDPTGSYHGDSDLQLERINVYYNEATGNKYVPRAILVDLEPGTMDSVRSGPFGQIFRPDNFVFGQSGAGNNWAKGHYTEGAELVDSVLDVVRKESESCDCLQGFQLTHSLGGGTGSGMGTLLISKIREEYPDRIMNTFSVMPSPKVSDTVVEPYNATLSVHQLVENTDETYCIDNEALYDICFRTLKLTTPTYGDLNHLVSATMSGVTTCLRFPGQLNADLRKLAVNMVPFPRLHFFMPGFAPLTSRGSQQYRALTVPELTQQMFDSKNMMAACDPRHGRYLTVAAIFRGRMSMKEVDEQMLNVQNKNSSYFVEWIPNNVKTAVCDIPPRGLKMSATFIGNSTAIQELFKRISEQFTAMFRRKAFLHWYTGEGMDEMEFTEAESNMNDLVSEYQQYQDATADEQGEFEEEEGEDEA

Chain of C. elegans KMN network containing KNL-1SD and the MIS-12SD complex (Q17635 whole entry, looked up): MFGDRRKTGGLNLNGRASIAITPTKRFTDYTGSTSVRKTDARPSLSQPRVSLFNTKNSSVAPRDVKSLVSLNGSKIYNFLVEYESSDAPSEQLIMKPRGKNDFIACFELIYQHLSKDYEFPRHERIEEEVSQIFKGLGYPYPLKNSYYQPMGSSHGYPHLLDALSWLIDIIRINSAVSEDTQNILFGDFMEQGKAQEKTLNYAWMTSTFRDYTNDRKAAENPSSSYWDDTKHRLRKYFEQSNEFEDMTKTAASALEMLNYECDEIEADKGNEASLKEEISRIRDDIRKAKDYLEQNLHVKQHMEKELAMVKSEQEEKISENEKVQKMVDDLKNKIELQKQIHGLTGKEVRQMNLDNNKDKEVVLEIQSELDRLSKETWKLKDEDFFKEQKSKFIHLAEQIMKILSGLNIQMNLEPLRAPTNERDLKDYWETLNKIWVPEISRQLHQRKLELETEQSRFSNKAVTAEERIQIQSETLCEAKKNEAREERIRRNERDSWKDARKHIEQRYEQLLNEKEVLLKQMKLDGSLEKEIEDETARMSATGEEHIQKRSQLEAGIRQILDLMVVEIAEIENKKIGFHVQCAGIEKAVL
Chain of C. elegans KMN network containing KNL-1SD and the MIS-12SD complex (P34278 whole entry, looked up): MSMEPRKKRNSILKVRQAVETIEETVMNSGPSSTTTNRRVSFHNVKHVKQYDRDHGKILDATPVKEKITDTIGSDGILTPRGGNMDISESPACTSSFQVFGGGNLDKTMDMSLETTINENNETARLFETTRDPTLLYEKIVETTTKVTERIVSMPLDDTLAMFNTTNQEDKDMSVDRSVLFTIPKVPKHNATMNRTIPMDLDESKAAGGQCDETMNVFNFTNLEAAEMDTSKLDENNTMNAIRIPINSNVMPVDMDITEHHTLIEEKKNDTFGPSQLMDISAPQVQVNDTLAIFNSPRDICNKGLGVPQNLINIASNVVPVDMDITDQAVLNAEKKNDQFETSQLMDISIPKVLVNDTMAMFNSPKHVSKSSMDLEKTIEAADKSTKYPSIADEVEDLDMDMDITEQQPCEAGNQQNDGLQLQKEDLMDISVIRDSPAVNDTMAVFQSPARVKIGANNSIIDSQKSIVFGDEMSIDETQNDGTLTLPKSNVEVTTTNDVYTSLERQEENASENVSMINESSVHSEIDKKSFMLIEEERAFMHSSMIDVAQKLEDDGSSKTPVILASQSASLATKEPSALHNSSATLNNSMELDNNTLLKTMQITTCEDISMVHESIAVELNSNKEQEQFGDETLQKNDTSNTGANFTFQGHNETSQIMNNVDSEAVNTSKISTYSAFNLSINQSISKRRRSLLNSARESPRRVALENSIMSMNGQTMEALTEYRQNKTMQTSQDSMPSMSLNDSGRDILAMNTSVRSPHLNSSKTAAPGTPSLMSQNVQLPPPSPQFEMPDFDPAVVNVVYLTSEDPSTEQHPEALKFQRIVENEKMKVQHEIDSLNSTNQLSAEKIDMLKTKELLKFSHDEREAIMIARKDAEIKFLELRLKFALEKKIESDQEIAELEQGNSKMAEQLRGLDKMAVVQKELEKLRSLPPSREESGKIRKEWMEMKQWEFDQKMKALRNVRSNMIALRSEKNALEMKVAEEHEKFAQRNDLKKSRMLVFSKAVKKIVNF
Chain of C. elegans KMN network containing KNL-1SD and the NDC-80SD complex (Q17635 whole entry, looked up): as the sequence (Q17635 whole entry, looked up) above
Chain of C. elegans KMN network containing KNL-1SD and the NDC-80SD complex (P34278 whole entry, looked up): as the sequence (P34278 whole entry, looked up) above

Kd [µM]	Substance
2.1	C. elegans KMN network containing KNL-1SD (from UniProt P34278 1-1010; Q17635 1-590) (complex)
5.3	C. elegans KMN network containing KNL-1SD and the MIS-12SD complex (from UniProt P34278 1-1010; Q17635 1-590)
4.9	C. elegans KMN network containing KNL-1SD and the NDC-80SD complex (from UniProt P34278 1-1010; Q17635 1-590)

— PMC2873218
